Results from the MegaScale stability set (Tsuboyama et al. 2023).

B1: HEEH_KT_rd6_3632 (parent)
chain: DAEELIELVERALKEGREIILLGVRITSEEAGKWFIEWIRRFL

Variants of: B1
Assay: folding stability dG (cDNA display proteolysis); higher = more stable
Settings: PBS, room temperature

Folding stability dG [kcal/mol]: each site, then its substitutions
S28: V 3.57; T 3.71; G 3.83; M 3.33; L 3.73; N 3.78; E 3.23; C 3.83; W 3.91; A 3.52; Y 3.47; R 3.43; K 3.17; I 3.46; H 3.36; F 3.62; Q 3.13; P 3.5; D 3.63
F35: D 2.6; N 2.53; A 3.03; K 3.08; E 2.63; I 3.85; V 3.65; Y 3.25; T 2.96; L 3.66; S 2.86; G 2.63; M 3.43; W 3.44; H 2.85; P 2.34; R 2.98; Q 2.85
G32: K 3.68; T 3.64; A 4.05; R 3.72; W 4.07; S 3.39; Q 3.43; M 4.07; Y 3.85; F 4.17; P 3.39; D 3.14; I 4.12; V 3.86; H 3.44; E 3.22; N 3.38; L 4.17
R40: A 3.39
E30: P 3.54; T 3.57; R 3.84; L 3.91; I 3.75; N 3.56; K 3.65; A 4; W 4.01; M 3.86; G 3.64; H 3.59; F 3.76; Q 3.77; Y 3.75; D 3.63; V 3.94; S 3.69
L22: P 2.68; C 4.73; I 3.56; A 3.2; Q 3.13; D 2.66; H 3.12; V 3.3; Y 3.22; E 2.7; S 3.1; R 3.31; T 3.08; M 3.53; F 3.63; N 3.05; K 3.05; W 4.08; G 3.01
T27: H 3.79; R 3.52; W 3.95; Q 3.44; I 3.9; N 3.99; S 3.67; A 3.94; Y 3.74; P 3.18; F 4.03; V 3.91; G 3.67; M 3.88; E 3.44; L 3.98; D 4.05; K 3.59
G23: W 4.11; S 3.56; I 3.87; D 3.37; N 3.31; F 3.93; M 3.91; C 3.82; L 4.02; H 3.6; T 3.63; R 3.54; K 3.55; A 3.67; Q 3.61; V 3.88; P 3.28; E 3.41; Y 3.91
W34: S 3.43; G 3.11; C 3.78; V 3.35; M 3.61; Y 3.43; H 3.54; A 4.01; R 3.98; D 3.39; K 3.81; I 3.6; E 3.41; L 3.72; N 3.48; P 2.66; Q 3.64; F 3.42; T 3.45
I36: Q 3.11; L 3.52; A 3.35; D 3.04; S 3.02; V 3.36; N 2.93; E 2.97; T 3.09; M 3.37; R 3.17; K 3.26; Y 3.46; G 2.92; W 3.76; F 3.44; H 3.15; P 2.59
